According to the supplement of paper PMC9112550, “Optimization of the antimicrobial peptide Bac7 by deep mutational scanning” (BMC Biology, 2022):

system: Escherichia coli TOP10; test: shrunken log2 fold change of peptide-encoding DNA abundance (4.5 h post-induction vs induction); higher = less antimicrobial activity (less host growth inhibition); details: time post-induction: 4.5 h; library: site-saturation at positions 5, 18, 19, 20
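Note: peptides expressed intracellularly from a pBAD plasmid library in pooled LB shake-flask culture, induced with 0.3% L-arabinose, DNA abundance read by NGS, three biological replicates, DESeq2 with apeglm shrinkage.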

Sequence | shrunken log2 fold change
RRIRPRPPRLPRPRPRPWECPRP | -0.0846
RRIRPRPPRLPRPRPRPWFKPRP | -0.125
RRIRPRPPRLPRPRPRPWGDPRP | -0.0121
RRIRPRPPRLPRPRPRPWIAPRP | 0.0544
RRIRPRPPRLPRPRPRPWIIPRP | -0.919
RRIRPRPPRLPRPRPRPWKRPRP | -0.0317
RRIRPRPPRLPRPRPRPWLDPRP | 0.164
RRIRPRPPRLPRPRPRPWNPPRP | -0.496
RRIRPRPPRLPRPRPRPWQFPRP | 0.00677
RRIRPRPPRLPRPRPRPWRAPRP | 0.185
RRIRPRPPRLPRPRPRPWRDPRP | -0.00123
RRIRPRPPRLPRPRPRPWRNPRP | 0.0809
RRIRPRPPRLPRPRPRPWVNPRP | -0.11
RRIRPRPPRLPRPRPRPWYNPRP | -0.184
RRIRPRPPRLPRPRPRPYDGPRP | -0.7
RRIRPRPPRLPRPRPRPYDLPRP | -0.293
RRIRPRPPRLPRPRPRPYEDPRP | -0.163
RRIRPRPPRLPRPRPRPYFRPRP | -0.463
RRIRPRPPRLPRPRPRPYGHPRP | 0.0138
RRIRPRPPRLPRPRPRPYGLPRP | -0.857
RRIRPRPPRLPRPRPRPYGPPRP | -0.37
RRIRPRPPRLPRPRPRPYGRPRP | -0.213
RRIRPRPPRLPRPRPRPYGWPRP | -0.248
RRIRPRPPRLPRPRPRPYHDPRP | -0.0378
RRIRPRPPRLPRPRPRPYIRPRP | -0.297

Sequence | shrunken log2 fold change
RRIRPRPPRLPRPRPRPYKEPRP | -0.382
RRIRPRPPRLPRPRPRPYKFPRP | -0.178
RRIRPRPPRLPRPRPRPYLRPRP | 0.0823
RRIRPRPPRLPRPRPRPYMHPRP | -0.493
RRIRPRPPRLPRPRPRPYMLPRP | -0.781
RRIRPRPPRLPRPRPRPYNFPRP | -0.289
RRIRPRPPRLPRPRPRPYPIPRP | -0.175
RRIRPRPPRLPRPRPRPYPPPRP | -0.537
RRIRPRPPRLPRPRPRPYQQPRP | -0.139
RRIRPRPPRLPRPRPRPYQRPRP | 0.0369
RRIRPRPPRLPRPRPRPYRCPRP | -0.173
RRIRPRPPRLPRPRPRPYTAPRP | -1.06
RRIRPRPPRLPRPRPRPYTFPRP | -0.504
RRIRPRPPRLPRPRPRPYVSPRP | 0.00613
RRIRPRPPRLPRPRPRPYVTPRP | -0.239
RRIRPRPPRLPRPRPRPYYTPRP | -0.379
RRIRQRPPRLPRPRPRPAAIPRP | 0.111
RRIRQRPPRLPRPRPRPADDPRP | -0.01
RRIRQRPPRLPRPRPRPAEDPRP | 0.0312
RRIRQRPPRLPRPRPRPAEPPRP | 0.157
RRIRQRPPRLPRPRPRPAFAPRP | 0.344
RRIRQRPPRLPRPRPRPAHLPRP | 0.362
RRIRQRPPRLPRPRPRPAIPPRP | 0.0602
RRIRQRPPRLPRPRPRPALFPRP | -0.0103
RRIRQRPPRLPRPRPRPAMWPRP | 0.579

Sequence | shrunken log2 fold change
RRIRQRPPRLPRPRPRPANTPRP | -0.118
RRIRQRPPRLPRPRPRPAPMPRP | 0.538
RRIRQRPPRLPRPRPRPAPYPRP | 0.204
RRIRQRPPRLPRPRPRPARGPRP | 0.126
RRIRQRPPRLPRPRPRPARLPRP | 0.0512
RRIRQRPPRLPRPRPRPASWPRP | 0.00959
RRIRQRPPRLPRPRPRPATHPRP | -0.28
RRIRQRPPRLPRPRPRPAVCPRP | -0.197
RRIRQRPPRLPRPRPRPAVLPRP | 0.0386
RRIRQRPPRLPRPRPRPAVWPRP | 0.939
RRIRQRPPRLPRPRPRPAWWPRP | 0.95
RRIRQRPPRLPRPRPRPCAEPRP | -0.135
RRIRQRPPRLPRPRPRPCAMPRP | -0.0872
RRIRQRPPRLPRPRPRPCCAPRP | 0.0773
RRIRQRPPRLPRPRPRPCDTPRP | -0.435
RRIRQRPPRLPRPRPRPCEQPRP | -0.105
RRIRQRPPRLPRPRPRPCERPRP | -0.0133
RRIRQRPPRLPRPRPRPCESPRP | -0.0107
RRIRQRPPRLPRPRPRPCFQPRP | -0.252
RRIRQRPPRLPRPRPRPCGMPRP | -0.199
RRIRQRPPRLPRPRPRPCGTPRP | 0.0105
RRIRQRPPRLPRPRPRPCHCPRP | -0.00822
RRIRQRPPRLPRPRPRPCKYPRP | -0.0164
RRIRQRPPRLPRPRPRPCMGPRP | -0.124
RRIRQRPPRLPRPRPRPCMSPRP | -0.234

Sequence | shrunken log2 fold change
RRIRQRPPRLPRPRPRPCMVPRP | -0.0725
RRIRQRPPRLPRPRPRPCNNPRP | -0.255
RRIRQRPPRLPRPRPRPCPWPRP | 0.0978
RRIRQRPPRLPRPRPRPCQFPRP | 0.0287
RRIRQRPPRLPRPRPRPCRLPRP | -0.15
RRIRQRPPRLPRPRPRPCTCPRP | -0.0638
RRIRQRPPRLPRPRPRPCTIPRP | -0.00957
RRIRQRPPRLPRPRPRPCTLPRP | -0.56
RRIRQRPPRLPRPRPRPCVVPRP | 0.0959
RRIRQRPPRLPRPRPRPCWAPRP | -0.139
RRIRQRPPRLPRPRPRPCWFPRP | -0.257
RRIRQRPPRLPRPRPRPDCGPRP | 2.88
RRIRQRPPRLPRPRPRPDCQPRP | -0.0643
RRIRQRPPRLPRPRPRPDDQPRP | 0.164
RRIRQRPPRLPRPRPRPDFIPRP | -0.345
RRIRQRPPRLPRPRPRPDHHPRP | -0.308
RRIRQRPPRLPRPRPRPDHQPRP | -0.126
RRIRQRPPRLPRPRPRPDKFPRP | -0.513
RRIRQRPPRLPRPRPRPDLAPRP | -0.0142
RRIRQRPPRLPRPRPRPDLKPRP | -0.0178
RRIRQRPPRLPRPRPRPDLMPRP | -0.08
RRIRQRPPRLPRPRPRPDLTPRP | 0.00424
RRIRQRPPRLPRPRPRPDMLPRP | 0.0939
RRIRQRPPRLPRPRPRPDNCPRP | 0.0333
RRIRQRPPRLPRPRPRPDQCPRP | -0.0972

Sequence | shrunken log2 fold change
RRIRQRPPRLPRPRPRPDQIPRP | 0.00408
RRIRQRPPRLPRPRPRPDQPPRP | -0.0438
RRIRQRPPRLPRPRPRPDRWPRP | 0.37
RRIRQRPPRLPRPRPRPDSKPRP | -0.146
RRIRQRPPRLPRPRPRPDVMPRP | 0.0589
RRIRQRPPRLPRPRPRPDYDPRP | 0.003
RRIRQRPPRLPRPRPRPEAPPRP | 0.6
RRIRQRPPRLPRPRPRPEDWPRP | -0.106
RRIRQRPPRLPRPRPRPEEEPRP | 0.00797
RRIRQRPPRLPRPRPRPEERPRP | 0.104
RRIRQRPPRLPRPRPRPEEYPRP | 0.0748
RRIRQRPPRLPRPRPRPEFAPRP | 0.482
RRIRQRPPRLPRPRPRPEFEPRP | -0.0193
RRIRQRPPRLPRPRPRPEFPPRP | -0.0498
RRIRQRPPRLPRPRPRPEIKPRP | -0.342
RRIRQRPPRLPRPRPRPEIPPRP | -0.0704
RRIRQRPPRLPRPRPRPEKKPRP | -0.0138
RRIRQRPPRLPRPRPRPELKPRP | 0.0791
RRIRQRPPRLPRPRPRPEPSPRP | 0.102
RRIRQRPPRLPRPRPRPEQFPRP | 0.0588
RRIRQRPPRLPRPRPRPEQIPRP | -0.0247
RRIRQRPPRLPRPRPRPEQSPRP | 0.142
RRIRQRPPRLPRPRPRPERRPRP | 0.0099
RRIRQRPPRLPRPRPRPESDPRP | 0.319
RRIRQRPPRLPRPRPRPESHPRP | -0.159

Sequence | shrunken log2 fold change
RRIRQRPPRLPRPRPRPESVPRP | 0.00473
RRIRQRPPRLPRPRPRPETRPRP | -0.0113
RRIRQRPPRLPRPRPRPEVWPRP | 0.552
RRIRQRPPRLPRPRPRPEWCPRP | -0.0929
RRIRQRPPRLPRPRPRPFANPRP | 0.0297
RRIRQRPPRLPRPRPRPFAYPRP | -0.0651
RRIRQRPPRLPRPRPRPFCLPRP | -0.336
RRIRQRPPRLPRPRPRPFCTPRP | -0.246
RRIRQRPPRLPRPRPRPFELPRP | -0.113
RRIRQRPPRLPRPRPRPFHDPRP | -0.336
RRIRQRPPRLPRPRPRPFHTPRP | -0.0573
RRIRQRPPRLPRPRPRPFIGPRP | -0.281
RRIRQRPPRLPRPRPRPFITPRP | -0.569
RRIRQRPPRLPRPRPRPFKRPRP | 0.0391
RRIRQRPPRLPRPRPRPFLIPRP | -1.81
RRIRQRPPRLPRPRPRPFLRPRP | -0.0193
RRIRQRPPRLPRPRPRPFMAPRP | -0.61
RRIRQRPPRLPRPRPRPFPIPRP | -0.0231
RRIRQRPPRLPRPRPRPFPRPRP | -0.122
RRIRQRPPRLPRPRPRPFQGPRP | -0.0134
RRIRQRPPRLPRPRPRPFQIPRP | 0.0399
RRIRQRPPRLPRPRPRPFQNPRP | -0.179
RRIRQRPPRLPRPRPRPFVIPRP | -0.131
RRIRQRPPRLPRPRPRPFWEPRP | -0.0669
RRIRQRPPRLPRPRPRPFWHPRP | -0.469
